Test results reported in US20210063414A1, “METHODS FOR PREVENTING AND/OR TREATING BONE LOSS CONDITIONS BY MODULATING IRISIN” (Dana-Farber Cancer Institute, Inc., priority 2018, published 2021).
Entries after “also recorded” stand apart in the source; their conditions may differ.

Test system: sclerostin mRNA in MLO-Y4 cells
Assay: Sclerostin mRNA in MLO-Y4 cells, qRT-PCR
Assay type: cell-based, mouse
Settings: MLO-Y4, irisin 16 hours
Method: Cells were stained with Hoechst 33342 and Eth-D1, and analyzed to determine the percentage of cell death. *: p<0.05, ***: p<0.001 vs 0.3 mM H2O2 treated condition. […] MLO-Y4 cells were seeded and incubated until 60% cell density. The cells were incubated with Freestyle293 medium for 4 hours and were treated with indicated concentrations of irisin for 16 hours. Sclerostin mRNA level was analyzed by qRT-PCR. Cyclophilin was used as a control house-keeping gene.
MLO-Y4 cells were incubated in serum free medium for 3 hours followed by treatment of indicated concentrations of irisin for indicated time (FIG. 6A), or followed by treatment of 0 or 10 nM irisin in the presence of indicated integrin inhibitors or their control peptide for 16 hours (FIG. 6B). Sclerostin mRNA level was analyzed by qPCR.
Certain materials and methods were used to generate the results described herein. […] Cells were stained with Hoechst 33342 (ThermoFisher Scientific, catalog number H3570) and Eth-D1 (ThermoFisher Scientific, catalog number E1169) and analyzed to determine the percentage of cell death using ImageJ. […] Co-precipitated irisin was analyzed by immunoblot analysis against flag tag (Sigma Aldrich, catalog number A8592). […] Sclerostin mRNA level was analyzed by qPCR (FIG. 7A). […]

B1: irisin: secreted cleaved form of FNDC5; recombinant human/mouse irisin with C-terminal his tag produced in HEK293 cells (protein)
chain: DSPSAPVNVTVRHLKANSAVVSWDVLEDEVVIGFAISQQKKDVRMLRFIQEVNTTTRSCALWDLEEDTEYIVHVQAISIQGQSPASEPVLFKTPREAEKMASKNKDEVTMKE
modifications: left off: small tags and cut ends
notes: secreted cleaved form of FNDC5; recombinant human/mouse irisin with C-terminal his tag produced in HEK293 cells
- sclerostin mRNA level: increased; also recorded: raised the mRNA level of sclerostin in the osteocyte cultures in a dose-dependent manner
